Test results published in patent US20170035877A1.

Tests used:
[1] = molecular target: 16055 SOSIP.663 trimer, negatively selected (flow-through of the GE136 column) (HIV-1 16055 (subtype C)); assay: negative-stain EM, 2D class averages
[2] = molecular target: JRFL SOSIP.663 trimer, negatively selected (flow-through of the F105 column) (HIV-1 JRFL (subtype B)) (UniProt P20871); assay: negative-stain EM, 2D class averages
[3] = molecular target: 16055 gp120 (HIV-1 16055 (subtype C))
[4] = molecular target: 16055 SOSIP.663 trimer, negatively selected (flow-through of the GE136 column) (HIV-1 16055 (subtype C)); assay: negative-stain EM, stoichiometry from micrographs
[5] = molecular target: JRFL SOSIP.663 trimer, negatively selected (flow-through of the F105 column) (HIV-1 JRFL (subtype B)) (UniProt P20871); assay: negative-stain EM, stoichiometry from micrographs
[6] = molecular target: 16055 SOSIP (HIV-1 16055 (subtype C)); assay: ITC; conditions: Fab

## 19b Fab
[1]
  percent of trimers with one Fab bound: 22%
[2]
  percent of trimers with one Fab bound: 25%

## F105
[3]
  Kd: 0.0302 µM

## PGT151 Fab
[4]
  percent of trimers with one Fab bound: 34%
  percent of trimers with three Fabs bound: 0%
  percent of trimers with two Fabs bound: 20%
[5]
  percent of trimers with one Fab bound: 28%
  percent of trimers with three Fabs bound: 11%
  percent of trimers with two Fabs bound: 36%

## VRC01 Fab
[6]
  Kd: 0.097 µM
